Laboratory results: paper PMC9482650, “Quantitative fragmentomics allow affinity mapping of interactomes” (Nature Communications, 2022)

T1: APBA2_1, Q99767
T1 sequence (Q99767 563-664, limits assumed, looked up): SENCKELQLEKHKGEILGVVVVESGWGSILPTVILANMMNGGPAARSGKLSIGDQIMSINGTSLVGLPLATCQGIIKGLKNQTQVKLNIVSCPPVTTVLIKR

T2: SNTA1, Q13424
T2 sequence (Q13424 82-180, limits assumed, looked up): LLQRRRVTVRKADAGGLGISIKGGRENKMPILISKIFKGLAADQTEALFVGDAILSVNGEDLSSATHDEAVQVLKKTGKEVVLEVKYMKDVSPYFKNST

T3: DLG3_2, Q92796
T3 sequence (Q92796 221-321, limits assumed, looked up): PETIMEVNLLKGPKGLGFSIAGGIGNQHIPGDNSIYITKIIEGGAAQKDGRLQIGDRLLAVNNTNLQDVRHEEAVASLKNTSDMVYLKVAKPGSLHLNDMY

T4: DLG3_3, Q92796
T4 sequence (Q92796 374-475, limits assumed, looked up): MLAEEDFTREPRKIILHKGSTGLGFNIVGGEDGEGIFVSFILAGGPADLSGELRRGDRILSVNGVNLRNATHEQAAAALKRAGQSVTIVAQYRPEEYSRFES

T5: DFNB31_3, Q9P202
T5 sequence (Q9P202 811-907, limits assumed, looked up): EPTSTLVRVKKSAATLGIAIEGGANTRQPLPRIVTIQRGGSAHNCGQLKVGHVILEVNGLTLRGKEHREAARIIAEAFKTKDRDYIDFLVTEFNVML

T6: PARD3B_1, Q8TEW8
T6 sequence (Q8TEW8 196-299, limits assumed, looked up): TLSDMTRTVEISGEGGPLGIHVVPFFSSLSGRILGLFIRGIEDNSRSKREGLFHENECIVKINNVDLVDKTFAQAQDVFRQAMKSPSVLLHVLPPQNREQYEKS

T7: APBA3_1, O96018
T7 sequence (O96018 389-490, limits assumed, looked up): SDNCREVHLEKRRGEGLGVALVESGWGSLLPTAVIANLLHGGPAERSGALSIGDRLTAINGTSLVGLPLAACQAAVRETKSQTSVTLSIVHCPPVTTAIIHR

T8: HTRA3, P83110
T8 sequence (P83110 354-453, limits assumed, looked up): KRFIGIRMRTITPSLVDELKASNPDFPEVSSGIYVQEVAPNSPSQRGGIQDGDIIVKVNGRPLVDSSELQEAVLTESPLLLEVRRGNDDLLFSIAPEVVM

T9: MPP6, Q9NZW5
T9 sequence (Q9NZW5 125-219, limits assumed, looked up): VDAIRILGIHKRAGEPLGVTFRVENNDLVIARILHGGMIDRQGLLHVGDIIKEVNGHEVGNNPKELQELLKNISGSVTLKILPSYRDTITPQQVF

T10: SNTG1, Q9NSN8
T10 sequence (Q9NSN8 52-150, limits assumed, looked up): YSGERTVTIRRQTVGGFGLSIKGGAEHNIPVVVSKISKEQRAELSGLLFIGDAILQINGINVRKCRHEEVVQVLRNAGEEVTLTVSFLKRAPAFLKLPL

T11: DFNB31_2, Q9P202
T11 sequence (Q9P202 274-371, limits assumed, looked up): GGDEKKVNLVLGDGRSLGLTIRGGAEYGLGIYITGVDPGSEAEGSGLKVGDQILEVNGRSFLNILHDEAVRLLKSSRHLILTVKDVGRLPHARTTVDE


Molecular target: T1, APBA2_1, Q99767
Test: holdup assay
Parameters: key: below the threshold = too weak to quantify, mostly under pKd 3.1 to 4
Settings: plain residues with an end cap or a label only (N-terminal biotin on a linker: ado-ado)

Row | Binder | pKd
1 | SVTSERETNI [SLC16A7, O60669] | below the threshold
2 | GIKKITSTAL [RPS6KA3, P51812] | below the threshold

Molecular target: T2, SNTA1, Q13424
Test: holdup assay
Parameters: key: below the threshold = too weak to quantify, mostly under pKd 3.1 to 4
Settings: plain residues with an end cap or a label only (N-terminal biotin on a linker: ado-ado)

Row | Binder | pKd
3 | SVTSERETNI [SLC16A7, O60669] | 5.09
4 | GIKKITSTAL [RPS6KA3, P51812] | 3.94

Molecular target: T3, DLG3_2, Q92796
Test: holdup assay
Parameters: key: below the threshold = too weak to quantify, mostly under pKd 3.1 to 4
Settings: plain residues with an end cap or a label only (N-terminal biotin on a linker: ado-ado)

Row | Binder | pKd
5 | SVTSERETNI [SLC16A7, O60669] | 4.25
6 | GIKKITSTAL [RPS6KA3, P51812] | 3.73

Molecular target: LAP2, Q96RT1
Test: holdup assay
Parameters: key: below the threshold = too weak to quantify, mostly under pKd 3.1 to 4
Settings: plain residues with an end cap or a label only (N-terminal biotin on a linker: ado-ado)

Sequence of LAP2, Q96RT1 (Q96RT1 other isoform, or with tags, fused parts or gaps): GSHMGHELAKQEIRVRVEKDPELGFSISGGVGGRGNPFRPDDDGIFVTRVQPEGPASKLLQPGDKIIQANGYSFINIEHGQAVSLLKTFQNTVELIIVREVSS

Row | Binder | pKd
7 | SVTSERETNI [SLC16A7, O60669] | below the threshold
8 | GIKKITSTAL [RPS6KA3, P51812] | below the threshold

Molecular target: IL16_1, Q14005
Test: holdup assay
Parameters: key: below the threshold = too weak to quantify, mostly under pKd 3.1 to 4
Settings: plain residues with an end cap or a label only (N-terminal biotin on a linker: ado-ado)

Sequence of IL16_1, Q14005 (Q14005 210-306): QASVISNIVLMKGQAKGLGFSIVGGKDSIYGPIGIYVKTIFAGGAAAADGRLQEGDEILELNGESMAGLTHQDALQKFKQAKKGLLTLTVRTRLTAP

Row | Binder | pKd
9 | SVTSERETNI [SLC16A7, O60669] | below the threshold
10 | GIKKITSTAL [RPS6KA3, P51812] | 3.5

Molecular target: T4, DLG3_3, Q92796
Test: holdup assay
Parameters: key: below the threshold = too weak to quantify, mostly under pKd 3.1 to 4
Settings: plain residues with an end cap or a label only (N-terminal biotin on a linker: ado-ado)

Row | Binder | pKd
11 | SVTSERETNI [SLC16A7, O60669] | below the threshold
12 | GIKKITSTAL [RPS6KA3, P51812] | 3.85

Molecular target: T5, DFNB31_3, Q9P202
Test: holdup assay
Parameters: key: below the threshold = too weak to quantify, mostly under pKd 3.1 to 4
Settings: plain residues with an end cap or a label only (N-terminal biotin on a linker: ado-ado)

Row | Binder | pKd
13 | SVTSERETNI [SLC16A7, O60669] | 3.97
14 | GIKKITSTAL [RPS6KA3, P51812] | 4.23

Molecular target: GRIP2_5, Q9C0E4
Test: holdup assay
Parameters: key: below the threshold = too weak to quantify, mostly under pKd 3.1 to 4
Settings: plain residues with an end cap or a label only (N-terminal biotin on a linker: ado-ado)

Sequence of GRIP2_5, Q9C0E4 (Q9C0E4 544-642): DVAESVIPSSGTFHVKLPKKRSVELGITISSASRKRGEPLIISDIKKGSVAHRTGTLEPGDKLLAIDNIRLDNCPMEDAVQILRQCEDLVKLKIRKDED

Row | Binder | pKd
15 | SVTSERETNI [SLC16A7, O60669] | below the threshold
16 | GIKKITSTAL [RPS6KA3, P51812] | 3.8

Molecular target: SCRIB_1, Q14160
Test: holdup assay
Parameters: key: below the threshold = too weak to quantify, mostly under pKd 3.1 to 4
Settings: plain residues with an end cap or a label only (N-terminal biotin on a linker: ado-ado)

Sequence of SCRIB_1, Q14160 (Q14160 718-814): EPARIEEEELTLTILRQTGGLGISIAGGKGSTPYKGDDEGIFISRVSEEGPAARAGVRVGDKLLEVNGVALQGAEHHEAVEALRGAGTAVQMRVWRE

Row | Binder | pKd
17 | SVTSERETNI [SLC16A7, O60669] | 4.1
18 | GIKKITSTAL [RPS6KA3, P51812] | 4.94

Molecular target: T6, PARD3B_1, Q8TEW8
Test: holdup assay
Parameters: key: below the threshold = too weak to quantify, mostly under pKd 3.1 to 4
Settings: plain residues with an end cap or a label only (N-terminal biotin on a linker: ado-ado)

Row | Binder | pKd
19 | SVTSERETNI [SLC16A7, O60669] | below the threshold
20 | GIKKITSTAL [RPS6KA3, P51812] | 4.05

Molecular target: MAGI2_4, Q86UL8
Test: holdup assay
Parameters: key: below the threshold = too weak to quantify, mostly under pKd 3.1 to 4
Settings: plain residues with an end cap or a label only (N-terminal biotin on a linker: ado-ado)

Sequence of MAGI2_4, Q86UL8 (Q86UL8 772-865): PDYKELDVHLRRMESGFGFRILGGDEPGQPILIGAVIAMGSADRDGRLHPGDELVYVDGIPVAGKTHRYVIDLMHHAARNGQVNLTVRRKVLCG

Row | Binder | pKd
21 | SVTSERETNI [SLC16A7, O60669] | below the threshold
22 | GIKKITSTAL [RPS6KA3, P51812] | 3.8

Molecular target: T7, APBA3_1, O96018
Test: holdup assay
Parameters: key: below the threshold = too weak to quantify, mostly under pKd 3.1 to 4
Settings: plain residues with an end cap or a label only (N-terminal biotin on a linker: ado-ado)

Row | Binder | pKd
23 | SVTSERETNI [SLC16A7, O60669] | below the threshold
24 | GIKKITSTAL [RPS6KA3, P51812] | below the threshold

Molecular target: T8, HTRA3, P83110
Test: holdup assay
Parameters: key: below the threshold = too weak to quantify, mostly under pKd 3.1 to 4
Settings: plain residues with an end cap or a label only (N-terminal biotin on a linker: ado-ado)

Row | Binder | pKd
25 | SVTSERETNI [SLC16A7, O60669] | below the threshold
26 | GIKKITSTAL [RPS6KA3, P51812] | below the threshold

Molecular target: HTRA1, Q92743
Test: holdup assay
Parameters: key: below the threshold = too weak to quantify, mostly under pKd 3.1 to 4
Settings: plain residues with an end cap or a label only (N-terminal biotin on a linker: ado-ado)

Sequence of HTRA1, Q92743 (Q92743 360-477): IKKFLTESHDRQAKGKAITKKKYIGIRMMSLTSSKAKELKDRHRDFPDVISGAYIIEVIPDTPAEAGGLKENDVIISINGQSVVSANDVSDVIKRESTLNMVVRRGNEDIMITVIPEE

Row | Binder | pKd
27 | SVTSERETNI [SLC16A7, O60669] | below the threshold
28 | GIKKITSTAL [RPS6KA3, P51812] | 3.58

Molecular target: DLG4_3, P78352
Test: holdup assay
Parameters: key: below the threshold = too weak to quantify, mostly under pKd 3.1 to 4
Settings: plain residues with an end cap or a label only (N-terminal biotin on a linker: ado-ado)

Sequence of DLG4_3, P78352 (P78352 306-403): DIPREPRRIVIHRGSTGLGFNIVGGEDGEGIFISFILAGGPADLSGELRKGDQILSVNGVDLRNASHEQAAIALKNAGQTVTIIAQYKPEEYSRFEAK

Row | Binder | pKd
29 | SVTSERETNI [SLC16A7, O60669] | below the threshold
30 | GIKKITSTAL [RPS6KA3, P51812] | 3.87

Molecular target: Inadl_9, Q8NI35
Test: holdup assay
Parameters: key: below the threshold = too weak to quantify, mostly under pKd 3.1 to 4
Settings: plain residues with an end cap or a label only (N-terminal biotin on a linker: ado-ado)

Sequence of Inadl_9, Q8NI35 (Q8NI35 1530-1615): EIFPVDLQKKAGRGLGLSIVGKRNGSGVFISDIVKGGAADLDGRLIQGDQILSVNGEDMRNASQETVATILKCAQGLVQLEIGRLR

Row | Binder | pKd
31 | SVTSERETNI [SLC16A7, O60669] | below the threshold
32 | GIKKITSTAL [RPS6KA3, P51812] | below the threshold

Molecular target: LNX1_2, Q8TBB1
Test: holdup assay
Parameters: key: below the threshold = too weak to quantify, mostly under pKd 3.1 to 4
Settings: plain residues with an end cap or a label only (N-terminal biotin on a linker: ado-ado)

Sequence of LNX1_2, Q8TBB1 (Q8TBB1 371-470): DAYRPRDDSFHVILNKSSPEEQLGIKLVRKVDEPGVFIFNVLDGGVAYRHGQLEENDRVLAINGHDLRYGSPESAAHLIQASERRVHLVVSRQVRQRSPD

Row | Binder | pKd
33 | SVTSERETNI [SLC16A7, O60669] | below the threshold
34 | GIKKITSTAL [RPS6KA3, P51812] | below the threshold

Molecular target: T9, MPP6, Q9NZW5
Test: holdup assay
Parameters: key: below the threshold = too weak to quantify, mostly under pKd 3.1 to 4
Settings: plain residues with an end cap or a label only (N-terminal biotin on a linker: ado-ado)

Row | Binder | pKd
35 | SVTSERETNI [SLC16A7, O60669] | 3.52
36 | GIKKITSTAL [RPS6KA3, P51812] | below the threshold

Molecular target: GRASP, Q7Z6J2
Test: holdup assay
Parameters: key: below the threshold = too weak to quantify, mostly under pKd 3.1 to 4
Settings: plain residues with an end cap or a label only (N-terminal biotin on a linker: ado-ado)

Sequence of GRASP, Q7Z6J2 (Q7Z6J2 96-193): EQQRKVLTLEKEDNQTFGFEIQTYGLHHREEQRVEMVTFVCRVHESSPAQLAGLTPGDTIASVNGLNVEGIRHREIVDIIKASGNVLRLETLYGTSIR

Row | Binder | pKd
37 | SVTSERETNI [SLC16A7, O60669] | below the threshold
38 | GIKKITSTAL [RPS6KA3, P51812] | 4.68

Molecular target: Inadl_2, Q8NI35
Test: holdup assay
Parameters: key: below the threshold = too weak to quantify, mostly under pKd 3.1 to 4
Settings: plain residues with an end cap or a label only (N-terminal biotin on a linker: ado-ado)

Sequence of Inadl_2, Q8NI35 (Q8NI35 238-335): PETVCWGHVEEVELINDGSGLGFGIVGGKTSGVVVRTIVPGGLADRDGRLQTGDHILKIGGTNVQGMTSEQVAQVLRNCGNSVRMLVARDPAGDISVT

Row | Binder | pKd
39 | SVTSERETNI [SLC16A7, O60669] | below the threshold
40 | GIKKITSTAL [RPS6KA3, P51812] | below the threshold

Molecular target: NHERF2_2, Q15599
Test: holdup assay
Parameters: key: below the threshold = too weak to quantify, mostly under pKd 3.1 to 4
Settings: plain residues with an end cap or a label only (N-terminal biotin on a linker: ado-ado)

Sequence of NHERF2_2, Q15599 (Q15599 142-238): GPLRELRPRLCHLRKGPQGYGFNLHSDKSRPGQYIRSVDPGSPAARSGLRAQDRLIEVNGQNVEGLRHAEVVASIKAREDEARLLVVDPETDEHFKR

Row | Binder | pKd
41 | SVTSERETNI [SLC16A7, O60669] | below the threshold
42 | GIKKITSTAL [RPS6KA3, P51812] | 4.76

Molecular target: IL16_4, Q14005
Test: holdup assay
Parameters: key: below the threshold = too weak to quantify, mostly under pKd 3.1 to 4
Settings: plain residues with an end cap or a label only (N-terminal biotin on a linker: ado-ado)

Sequence of IL16_4, Q14005 (Q14005 1229-1329): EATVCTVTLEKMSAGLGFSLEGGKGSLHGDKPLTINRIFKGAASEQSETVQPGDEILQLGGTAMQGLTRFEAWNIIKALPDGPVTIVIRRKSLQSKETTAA

Row | Binder | pKd
43 | SVTSERETNI [SLC16A7, O60669] | 3.49
44 | GIKKITSTAL [RPS6KA3, P51812] | 3.78

Molecular target: T10, SNTG1, Q9NSN8
Test: holdup assay
Parameters: key: below the threshold = too weak to quantify, mostly under pKd 3.1 to 4
Settings: plain residues with an end cap or a label only (N-terminal biotin on a linker: ado-ado)

Row | Binder | pKd
45 | SVTSERETNI [SLC16A7, O60669] | 4.61
46 | GIKKITSTAL [RPS6KA3, P51812] | 3.68

Molecular target: T11, DFNB31_2, Q9P202
Test: holdup assay
Parameters: key: below the threshold = too weak to quantify, mostly under pKd 3.1 to 4
Settings: plain residues with an end cap or a label only (N-terminal biotin on a linker: ado-ado)

Row | Binder | pKd
47 | SVTSERETNI [SLC16A7, O60669] | below the threshold
48 | GIKKITSTAL [RPS6KA3, P51812] | below the threshold

Molecular target: MAST1, Q9Y2H9
Test: holdup assay
Parameters: key: below the threshold = too weak to quantify, mostly under pKd 3.1 to 4
Settings: plain residues with an end cap or a label only (N-terminal biotin on a linker: ado-ado)

Sequence of MAST1, Q9Y2H9 (Q9Y2H9 962-1065): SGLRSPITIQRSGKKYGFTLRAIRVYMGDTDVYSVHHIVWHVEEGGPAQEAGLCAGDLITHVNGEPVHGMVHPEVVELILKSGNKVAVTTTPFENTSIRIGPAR

Row | Binder | pKd
49 | SVTSERETNI [SLC16A7, O60669] | 4.14
50 | GIKKITSTAL [RPS6KA3, P51812] | 5.06

Molecular target: Inadl_6, Q8NI35
Test: holdup assay
Parameters: key: below the threshold = too weak to quantify, mostly under pKd 3.1 to 4
Settings: plain residues with an end cap or a label only (N-terminal biotin on a linker: ado-ado)

Sequence of Inadl_6, Q8NI35 (Q8NI35 1058-1167): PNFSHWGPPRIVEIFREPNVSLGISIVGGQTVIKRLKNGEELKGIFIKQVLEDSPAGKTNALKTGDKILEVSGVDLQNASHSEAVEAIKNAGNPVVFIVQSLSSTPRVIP

Row | Binder | pKd
51 | SVTSERETNI [SLC16A7, O60669] | below the threshold
52 | GIKKITSTAL [RPS6KA3, P51812] | 3.57
